Like-named read-outs stand apart in the source and are kept apart here.
B1: Compound No. 66 (peptide)
peptide: FANPHLGWSWSXRCG
HELM: PEPTIDE1{[O=C(C[*:3])[*:2]].F.[meA].N.P.H.L.[Sar].W.S.W.[meS].[CCCC[C@@H](C(=O)[*:2])N(C)[*:1]].R.C.G.[am]}$PEPTIDE1,PEPTIDE1,1:R3-15:R3$$$V2.0
SMILES: CCCC[C@H]1C(=O)N[C@@H](CCCNC(=N)N)C(=O)N[C@H](C(=O)NCC(N)=O)CSCC(=O)N[C@@H](Cc2ccccc2)C(=O)N(C)[C@@H](C)C(=O)N[C@@H](CC(N)=O)C(=O)N2CCC[C@H]2C(=O)N[C@@H](Cc2c[nH]cn2)C(=O)N[C@@H](CC(C)C)C(=O)N(C)CC(=O)N[C@@H](Cc2c[nH]c3ccccc23)C(=O)N[C@@H](CO)C(=O)N[C@@H](Cc2c[nH]c3ccccc23)C(=O)N(C)[C@@H](CO)C(=O)N1C
notes: macrocyclic peptide cyclized via the ClAc moiety with the downstream cysteine
B2: Compound No. 69 (peptide)
peptide: FANPHLGWSWFXRCG
HELM: PEPTIDE1{[O=C(C[*:3])[*:2]].F.[meA].N.P.H.L.[Sar].W.S.W.F.[CCCC[C@@H](C(=O)[*:2])N(C)[*:1]].R.C.G.[am]}$PEPTIDE1,PEPTIDE1,1:R3-15:R3$$$V2.0
SMILES: CCCC[C@H]1C(=O)N[C@@H](CCCNC(=N)N)C(=O)N[C@H](C(=O)NCC(N)=O)CSCC(=O)N[C@@H](Cc2ccccc2)C(=O)N(C)[C@@H](C)C(=O)N[C@@H](CC(N)=O)C(=O)N2CCC[C@H]2C(=O)N[C@@H](Cc2c[nH]cn2)C(=O)N[C@@H](CC(C)C)C(=O)N(C)CC(=O)N[C@@H](Cc2c[nH]c3ccccc23)C(=O)N[C@@H](CO)C(=O)N[C@@H](Cc2c[nH]c3ccccc23)C(=O)N[C@@H](Cc2ccccc2)C(=O)N1C
notes: as for B1
B3: Compound No. 67 (peptide)
peptide: FANPHLGWSWFXRCG
HELM: PEPTIDE1{[O=C(C[*:3])[*:2]].F.[meA].N.P.H.L.[Sar].W.S.W.[meF].[CCCC[C@@H](C(=O)[*:2])N(C)[*:1]].R.C.G.[am]}$PEPTIDE1,PEPTIDE1,1:R3-15:R3$$$V2.0
SMILES: CCCC[C@H]1C(=O)N[C@@H](CCCNC(=N)N)C(=O)N[C@H](C(=O)NCC(N)=O)CSCC(=O)N[C@@H](Cc2ccccc2)C(=O)N(C)[C@@H](C)C(=O)N[C@@H](CC(N)=O)C(=O)N2CCC[C@H]2C(=O)N[C@@H](Cc2c[nH]cn2)C(=O)N[C@@H](CC(C)C)C(=O)N(C)CC(=O)N[C@@H](Cc2c[nH]c3ccccc23)C(=O)N[C@@H](CO)C(=O)N[C@@H](Cc2c[nH]c3ccccc23)C(=O)N(C)[C@@H](Cc2ccccc2)C(=O)N1C
notes: as for B1
B4: Compound No. 65 (peptide)
peptide: FANPHLGWSWLXRCG
HELM: PEPTIDE1{[O=C(C[*:3])[*:2]].F.[meA].N.P.H.L.[Sar].W.S.W.[meL].[CCCC[C@@H](C(=O)[*:2])N(C)[*:1]].R.C.G.[am]}$PEPTIDE1,PEPTIDE1,1:R3-15:R3$$$V2.0
SMILES: CCCC[C@H]1C(=O)N[C@@H](CCCNC(=N)N)C(=O)N[C@H](C(=O)NCC(N)=O)CSCC(=O)N[C@@H](Cc2ccccc2)C(=O)N(C)[C@@H](C)C(=O)N[C@@H](CC(N)=O)C(=O)N2CCC[C@H]2C(=O)N[C@@H](Cc2c[nH]cn2)C(=O)N[C@@H](CC(C)C)C(=O)N(C)CC(=O)N[C@@H](Cc2c[nH]c3ccccc23)C(=O)N[C@@H](CO)C(=O)N[C@@H](Cc2c[nH]c3ccccc23)C(=O)N(C)[C@@H](CC(C)C)C(=O)N1C
notes: as for B1
B5: Compound No. 68 (peptide)
peptide: FANPHLGWSWSXRCG
HELM: PEPTIDE1{[O=C(C[*:3])[*:2]].F.[meA].N.P.H.L.[Sar].W.S.W.S.[CCCC[C@@H](C(=O)[*:2])N(C)[*:1]].R.C.G.[am]}$PEPTIDE1,PEPTIDE1,1:R3-15:R3$$$V2.0
SMILES: CCCC[C@H]1C(=O)N[C@@H](CCCNC(=N)N)C(=O)N[C@H](C(=O)NCC(N)=O)CSCC(=O)N[C@@H](Cc2ccccc2)C(=O)N(C)[C@@H](C)C(=O)N[C@@H](CC(N)=O)C(=O)N2CCC[C@H]2C(=O)N[C@@H](Cc2c[nH]cn2)C(=O)N[C@@H](CC(C)C)C(=O)N(C)CC(=O)N[C@@H](Cc2c[nH]c3ccccc23)C(=O)N[C@@H](CO)C(=O)N[C@@H](Cc2c[nH]c3ccccc23)C(=O)N[C@@H](CO)C(=O)N1C
notes: as for B1
B6: Compound No. 71 (peptide)
peptide: FFXGDVFYGWYLCG
HELM: PEPTIDE1{[O=C(C[*:3])[*:2]].F.[meF].[CCCC[C@@H](C(=O)[*:2])N(C)[*:1]].[Sar].D.V.[meF].Y.[Sar].W.Y.L.C.G.[am]}$PEPTIDE1,PEPTIDE1,1:R3-14:R3$$$V2.0
SMILES: CCCC[C@H]1C(=O)N(C)CC(=O)N[C@@H](CC(=O)O)C(=O)N[C@@H](C(C)C)C(=O)N(C)[C@@H](Cc2ccccc2)C(=O)N[C@@H](Cc2ccc(O)cc2)C(=O)N(C)CC(=O)N[C@@H](Cc2c[nH]c3ccccc23)C(=O)N[C@@H](Cc2ccc(O)cc2)C(=O)N[C@@H](CC(C)C)C(=O)N[C@H](C(=O)NCC(N)=O)CSCC(=O)N[C@@H](Cc2ccccc2)C(=O)N(C)[C@@H](Cc2ccccc2)C(=O)N1C
notes: macrocyclic peptide cyclized via the ClAc moiety with the downstream cysteine; parent of the Formula II series
B7: Compound No. 72 (peptide)
peptide: AFXGDVFYGWYLCG
HELM: PEPTIDE1{[O=C(C[*:3])[*:2]].A.[meF].[CCCC[C@@H](C(=O)[*:2])N(C)[*:1]].[Sar].D.V.[meF].Y.[Sar].W.Y.L.C.G.[am]}$PEPTIDE1,PEPTIDE1,1:R3-14:R3$$$V2.0
SMILES: CCCC[C@H]1C(=O)N(C)CC(=O)N[C@@H](CC(=O)O)C(=O)N[C@@H](C(C)C)C(=O)N(C)[C@@H](Cc2ccccc2)C(=O)N[C@@H](Cc2ccc(O)cc2)C(=O)N(C)CC(=O)N[C@@H](Cc2c[nH]c3ccccc23)C(=O)N[C@@H](Cc2ccc(O)cc2)C(=O)N[C@@H](CC(C)C)C(=O)N[C@H](C(=O)NCC(N)=O)CSCC(=O)N[C@@H](C)C(=O)N(C)[C@@H](Cc2ccccc2)C(=O)N1C
notes: macrocyclic peptide cyclized via the ClAc moiety with the downstream cysteine; variant of Compound No. 71 (Ala at 1)
B8: Compound No. 84 (peptide)
peptide: FFXGDVFYAWYLCG
HELM: PEPTIDE1{[O=C(C[*:3])[*:2]].F.[meF].[CCCC[C@@H](C(=O)[*:2])N(C)[*:1]].[Sar].D.V.[meF].Y.[meA].W.Y.L.C.G.[am]}$PEPTIDE1,PEPTIDE1,1:R3-14:R3$$$V2.0
SMILES: CCCC[C@H]1C(=O)N(C)CC(=O)N[C@@H](CC(=O)O)C(=O)N[C@@H](C(C)C)C(=O)N(C)[C@@H](Cc2ccccc2)C(=O)N[C@@H](Cc2ccc(O)cc2)C(=O)N(C)[C@@H](C)C(=O)N[C@@H](Cc2c[nH]c3ccccc23)C(=O)N[C@@H](Cc2ccc(O)cc2)C(=O)N[C@@H](CC(C)C)C(=O)N[C@H](C(=O)NCC(N)=O)CSCC(=O)N[C@@H](Cc2ccccc2)C(=O)N(C)[C@@H](Cc2ccccc2)C(=O)N1C
notes: macrocyclic peptide cyclized via the ClAc moiety with the downstream cysteine; variant of Compound No. 71 (mAla at 9)
B9: Compound No. 77 (peptide)
peptide: FFXADVFYGWYLCG
HELM: PEPTIDE1{[O=C(C[*:3])[*:2]].F.[meF].[CCCC[C@@H](C(=O)[*:2])N(C)[*:1]].[meA].D.V.[meF].Y.[Sar].W.Y.L.C.G.[am]}$PEPTIDE1,PEPTIDE1,1:R3-14:R3$$$V2.0
SMILES: CCCC[C@H]1C(=O)N(C)[C@@H](C)C(=O)N[C@@H](CC(=O)O)C(=O)N[C@@H](C(C)C)C(=O)N(C)[C@@H](Cc2ccccc2)C(=O)N[C@@H](Cc2ccc(O)cc2)C(=O)N(C)CC(=O)N[C@@H](Cc2c[nH]c3ccccc23)C(=O)N[C@@H](Cc2ccc(O)cc2)C(=O)N[C@@H](CC(C)C)C(=O)N[C@H](C(=O)NCC(N)=O)CSCC(=O)N[C@@H](Cc2ccccc2)C(=O)N(C)[C@@H](Cc2ccccc2)C(=O)N1C
notes: macrocyclic peptide cyclized via the ClAc moiety with the downstream cysteine; variant of Compound No. 71 (mAla at 4)
B10: Compound No. 83 (peptide)
peptide: FFXGDVFAGWYLCG
HELM: PEPTIDE1{[O=C(C[*:3])[*:2]].F.[meF].[CCCC[C@@H](C(=O)[*:2])N(C)[*:1]].[Sar].D.V.[meF].A.[Sar].W.Y.L.C.G.[am]}$PEPTIDE1,PEPTIDE1,1:R3-14:R3$$$V2.0
SMILES: CCCC[C@H]1C(=O)N(C)CC(=O)N[C@@H](CC(=O)O)C(=O)N[C@@H](C(C)C)C(=O)N(C)[C@@H](Cc2ccccc2)C(=O)N[C@@H](C)C(=O)N(C)CC(=O)N[C@@H](Cc2c[nH]c3ccccc23)C(=O)N[C@@H](Cc2ccc(O)cc2)C(=O)N[C@@H](CC(C)C)C(=O)N[C@H](C(=O)NCC(N)=O)CSCC(=O)N[C@@H](Cc2ccccc2)C(=O)N(C)[C@@H](Cc2ccccc2)C(=O)N1C
notes: macrocyclic peptide cyclized via the ClAc moiety with the downstream cysteine; variant of Compound No. 71 (Ala at 8)
B11: Compound No. 80 (peptide)
peptide: FFXGDAFYGWYLCG
HELM: PEPTIDE1{[O=C(C[*:3])[*:2]].F.[meF].[CCCC[C@@H](C(=O)[*:2])N(C)[*:1]].[Sar].D.A.[meF].Y.[Sar].W.Y.L.C.G.[am]}$PEPTIDE1,PEPTIDE1,1:R3-14:R3$$$V2.0
SMILES: CCCC[C@H]1C(=O)N(C)CC(=O)N[C@@H](CC(=O)O)C(=O)N[C@@H](C)C(=O)N(C)[C@@H](Cc2ccccc2)C(=O)N[C@@H](Cc2ccc(O)cc2)C(=O)N(C)CC(=O)N[C@@H](Cc2c[nH]c3ccccc23)C(=O)N[C@@H](Cc2ccc(O)cc2)C(=O)N[C@@H](CC(C)C)C(=O)N[C@H](C(=O)NCC(N)=O)CSCC(=O)N[C@@H](Cc2ccccc2)C(=O)N(C)[C@@H](Cc2ccccc2)C(=O)N1C
notes: macrocyclic peptide cyclized via the ClAc moiety with the downstream cysteine; variant of Compound No. 71 (Ala at 6)

Columns and labels:
[1] = target: T1, hPDL1(19-239)-TVMV-His (human, UniProt Q9NZQ7 19-239); test: HTRF competition, PD-1-Ig (20 nM) binding to human PD-L1-His (10 nM)
T1 construct: The construct name says 19-239, the running text says amino acids 18-239; Expressed in HEK293T cells; also called PD-L1-His; PD-L1-TVMV-His
T1 sequence (Q9NZQ7 other isoform, or with tags, fused parts or gaps limits assumed): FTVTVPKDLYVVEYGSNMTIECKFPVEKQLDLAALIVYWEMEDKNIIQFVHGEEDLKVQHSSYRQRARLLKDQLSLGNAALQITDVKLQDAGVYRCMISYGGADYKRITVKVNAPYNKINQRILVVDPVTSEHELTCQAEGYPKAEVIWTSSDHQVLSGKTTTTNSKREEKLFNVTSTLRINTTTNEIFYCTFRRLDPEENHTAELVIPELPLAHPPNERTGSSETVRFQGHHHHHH
Method: (§1) All binding studies were performed in an HTRF assay buffer consisting of dPBS supplemented with 0.1% (w/v) bovine serum albumin and 0.05% (v/v) Tween-20. […] PD-L1 fusion proteins from either human, cynomologous macaques, or mouse were used. HTRF detection was achieved using europium crypate-labeled anti-Ig monoclonal antibody (1 nM final) and allophycocyanin (APC) labeled anti-His monoclonal antibody (20 nM final). Antibodies were diluted in HTRF detection buffer and 5 μl was dispensed on top of binding reaction. The reaction was allowed to equilibrate for 30 minutes and signal (665 nm/620 nm ratio) was obtained using an EnVision fluorometer. […]
HTRF Experiments were performed essentially as outlined supra. Variant macrocyclic peptides were created as outlined herein.

[2] = target: T1, hPDL1(19-239)-TVMV-His; test: as above; remark: listed apart in the source
Method: as §1
HTRF experiments were performed essentially as outlined supra. Variant macrocyclic peptides were created as outlined herein.

| Binder | IC50 [1] [nM] | IC50 [2] [nM] |
| --- | --- | --- |
| B1 | 144 | – |
| B2 | 77 | – |
| B3 | 108 | – |
| B4 | 43 | – |
| B5 | 2060 | – |
| B6 | – | 7 |
| B7 | – | 4230 |
| B8 | – | 42 |
| B9 | – | 24 |
| B10 | – | 35 |
| B11 | – | 264 |

— patent publication US20140294898A1 (published 2014)
